Assay [1] addresses T1, SARS-CoV-2 spike protein RBD (amino acids 319-537 of SEQ ID NO:1, i.e. SEQ ID NO:5) with a carboxy t (SARS-CoV-2), P0DTC2. The note with it: remark: other sources report otherwise.
For assay [2], the target named is T1, SARS-CoV-2 spike protein RBD (amino …). The note with it: remark: other sources report otherwise. This is another data set of the same source.

Read-outs that look alike come from different tables or passages of the source.

Here are results for 1 molecule from patent US20230406907A1.

B1: antibody S1D2 (fully human recombinant monoclonal IgG1, no Fc mutation) (antibody, V domains shown)
VH: EVQLVESGGGLIQPGGSLRLSCAASGFTVSSNYMSWVRQAPGKGLEWVSIIYPGGSTNYADSVKGRFTISRDNSRNTLYLQMNSLRAEDTAVYYCARELGYYGMDVWGQGTTVTVSS
VL: DIQMTQSPSSVSASVGDRVTITCRASQGISTWLVWYQQKPGKAPNLLIYGASSLQSGVPSRFSGSGSGTDFTLTISSLQPEDFATYYCQQANSFPYTFGQGTKLEIK
For B1, the dissociation constant (Kd) in assay [1] worked out at 46 nM. Further, in assay [2], the Kd was found to be 46.2 nM, the koff turned out to be 0.027 s⁻¹ and the kon stood at 584000 M⁻¹ s⁻¹.

In general, Kd refers to the concentration at which binding is half-saturated. Higher therefore signals lower affinity. As usually defined, the koff is the first-order rate constant of dissociation. A higher koff goes with fast dissociation. The kon is the rate constant with which the complex forms. Read a high kon as faster complex formation.
